Test results from patent US20170369589A1 (INBIOMOTION S L, published 2017).
No end group written: not given here.

Legend:
[1] = target: T1, Peptide 1 (epitope 83-EQKAHLEDYYWMTGYPQQ-100 of c-MAF of human origin) conjugated to BSA (human, also: conjugated to BSA); assay: antigen-specific ELISA: epitope peptide conjugated to BSA on the plate, anti-rabbit secondary antibody conjugated to alkaline phosphatase
T1 construct: also called antigen
T1 peptide: EQKAHLEDYYWMTGYPQQ
Protocol: An Antigen-specific ELISA was used to test the antibody sensitivity for the antigen. To this end, the epitope, Peptide 1, described above, was conjugated to BSA. This was attached to a the plate surface where the ELISA is performed and washed. The INB-1-11-8 c-MAF specific antibody was then applied so that it could bind to the antigen. Following, the incubation time and wash with TBST, a secondary antibody specific for rabbit antibodies and conjugated to Alkaline Phosphatase was used to score binding of the primary antibody to the antigen. Several dilutions were used to test the titer of the antibody, which is an indication of the affinity of the antibody for its antigen (FIG. 3A).

[2] = target: T2, c-MAF (Q1): fragment of c-MAF including Aa 19-208 (Homo sapiens (Human), UniProt O75444 19-208); assay: SPR, Biacore T200, 25 C; antibody captured on Protein A, c-MAF (Q1) as analyte at 6.5 nM; single concentration fit, 1:1 model
T2 construct: Recombinant antigen preparation used in SPR; also called c-MAF fragment
T2 sequence: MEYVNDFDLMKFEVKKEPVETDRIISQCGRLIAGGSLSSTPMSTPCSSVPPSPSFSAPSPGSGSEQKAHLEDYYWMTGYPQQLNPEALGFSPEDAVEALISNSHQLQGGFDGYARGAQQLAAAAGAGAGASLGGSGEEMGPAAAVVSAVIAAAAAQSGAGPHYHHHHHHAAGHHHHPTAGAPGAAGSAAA
Protocol: Test measurements were conducted to confirm protein A-binding of the antibody INB-1-11-8 and to select appropriate capture levels for the kinetic measurements of the analyte. A capture level of 240 RU was chosen for the measurement with c-MAF (Q1), resulting in an expected Rmax of ca 64 RU for two 19.6 kDa antigens binding per antibody molecule. To generate sufficiently high binding signals for the peptide, a higher capture level of […] was chosen, also resulting in an expected Rmax of ca 30 RU. Serial dilutions of the antigen were injected for 180 s, followed by a 600 s buffer injection for off-rate determination (see FIG. 6). For the c-MAF fragment the molar concentrations used for the serial dilutions were calculated based on the concentrations determined by CFCA. The kinetic measurements were performed twice to confirm the binding behavior.
Based on this preliminary data, an affinity in the nM-range has been roughly estimated for the interaction. The binding is characterized by a very fast association rate and a fast dissociation rate, i.e. the binding is not very tight.

B1: INB-1-11-8 c-MAF specific monoclonal antibody (rabbit) (antibody, V domains shown)
VH: QSLEESGGRLVTPGTPLTLTCTASGFSLNNYPMTWVRQAPGKGLDYIGVINNSGETAYATWAKRRFTISRTSTTLYLKIASPTIEDTATYFCARGGPVSSDMWGPGTLVIVSS
VL: AQVLTQTASPVSAVVGGTVTINCQSSQSVYRGDWLAWYQQRPGQPPKLLIYGASTLASGVPSRFKGSGSGTHFTLTISDLDCDDAATYYCAGGFSGHIYDFGGGTEVVVKG
notes: Rabbit monoclonal antibody; also called Clone ID11-8; antibody INB-1-11-8
[1]
  binding result: binds
[2]
  Kd: 1.1 nM
  koff: 0.0056 s⁻¹
  kon: 5.3e+06 M⁻¹ s⁻¹
